Experimental data as given in PMC2811157.

Biological target: GST-tagged Polo-box domain (PBD) of Plk1 (UniProt P53350)
Experiment: GST pull-down with anti-GFP immunoblot, band quantification
Conditions: mitotic lysates of U2OS cell lines; immobilized GST-Plk1-PBD; input levels set to 100%; parent: est. 56; read off a plot

Sequence of UniProt P53350 (P53350 326-603): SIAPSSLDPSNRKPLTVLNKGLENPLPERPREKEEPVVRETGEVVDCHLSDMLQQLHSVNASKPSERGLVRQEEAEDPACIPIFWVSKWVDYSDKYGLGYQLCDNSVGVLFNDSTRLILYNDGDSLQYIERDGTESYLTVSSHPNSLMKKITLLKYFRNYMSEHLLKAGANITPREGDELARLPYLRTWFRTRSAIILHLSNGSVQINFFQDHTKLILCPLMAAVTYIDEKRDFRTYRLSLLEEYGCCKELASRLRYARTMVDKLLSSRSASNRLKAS

Row | response | Substance
1 | 10 % of input | GFP-tagged murine 53BP1, wild type (from UniProt P70399) S376A
2 | 78 % of input | GFP-tagged murine 53BP1, wild type (from UniProt P70399) S1620A
